In IntAct's records for PubMed 16777958:

Target: ack1_mouse Tnk2 (UniProt O54967)
Sequence (O54967 whole entry): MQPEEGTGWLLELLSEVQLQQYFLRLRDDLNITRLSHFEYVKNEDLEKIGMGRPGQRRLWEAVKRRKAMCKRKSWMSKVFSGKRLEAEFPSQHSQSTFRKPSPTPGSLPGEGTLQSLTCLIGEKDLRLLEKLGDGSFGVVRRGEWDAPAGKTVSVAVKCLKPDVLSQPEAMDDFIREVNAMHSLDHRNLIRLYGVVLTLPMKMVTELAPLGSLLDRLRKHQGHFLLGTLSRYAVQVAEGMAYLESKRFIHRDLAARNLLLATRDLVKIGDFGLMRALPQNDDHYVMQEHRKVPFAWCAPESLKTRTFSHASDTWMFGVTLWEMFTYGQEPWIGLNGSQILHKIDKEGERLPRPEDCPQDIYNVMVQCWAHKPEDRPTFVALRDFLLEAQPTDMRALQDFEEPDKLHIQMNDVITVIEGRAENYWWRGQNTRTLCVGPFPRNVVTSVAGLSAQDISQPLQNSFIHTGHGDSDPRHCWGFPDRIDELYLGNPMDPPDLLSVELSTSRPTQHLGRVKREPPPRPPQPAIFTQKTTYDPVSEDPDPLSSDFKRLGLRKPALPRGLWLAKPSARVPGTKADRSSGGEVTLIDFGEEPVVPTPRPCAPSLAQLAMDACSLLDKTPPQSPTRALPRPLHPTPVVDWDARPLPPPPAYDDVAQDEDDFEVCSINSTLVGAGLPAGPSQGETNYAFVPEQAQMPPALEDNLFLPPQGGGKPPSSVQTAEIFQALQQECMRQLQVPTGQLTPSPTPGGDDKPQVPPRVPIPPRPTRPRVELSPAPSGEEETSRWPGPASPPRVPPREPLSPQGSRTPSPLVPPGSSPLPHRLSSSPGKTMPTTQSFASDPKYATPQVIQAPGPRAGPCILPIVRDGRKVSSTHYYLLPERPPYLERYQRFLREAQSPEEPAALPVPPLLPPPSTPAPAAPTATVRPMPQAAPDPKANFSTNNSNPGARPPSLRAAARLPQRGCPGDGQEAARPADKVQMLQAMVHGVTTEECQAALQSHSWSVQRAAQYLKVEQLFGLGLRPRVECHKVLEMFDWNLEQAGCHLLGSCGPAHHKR

effect of a mutation on the interaction: disrupting interaction strength
Substance: SH2/SH3 adapter protein NCK1 (Homo sapiens) (from UniProt P16333-1) R308A
